Measurements: the supplement of paper PMC7125110
± gives the standard error. This sample holds only a part of the variants without activity.

B1: glmS ribozyme (parent)
chain: AUAAAAGCGCCAGAACUACAGAAAUGUAGUUGACGAGGAGGAGGUUUAUCGAAUUUUCGGCGGAUGCCUCCAAA

Key:
Settings in all cases: with glucosamine-6-phosphate
glucosamine-6-phosphate [1] = variants of: B1; assay: self-cleavage kobs at 40 uM GlcN6P; higher = faster cleavage; RNA array
Outline: (§1)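 Barcoded ribozyme variants, transcribed in situ by E. coli RNA polymerase on sequenced MiSeq chips, were followed via a hybridised Cy3 probe at 37 °C. Glucosamine-6-phosphate ranged from 40 μM to 10 mM in HEPES/KCl/Mg(OAc)2 buffer. kobs came from decay fits to per-tile medians, and kcat and KM from weighted Michaelis–Menten fits.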

glucosamine-6-phosphate [2] = variants of: B1; assay: self-cleavage kobs at 2500 uM GlcN6P; higher = faster cleavage; RNA array
Outline: as §1

glucosamine-6-phosphate [3] = variants of: B1; assay: self-cleavage kobs at 10000 uM GlcN6P; higher = faster cleavage; RNA array
Outline: as §1

glucosamine-6-phosphate [4] = variants of: B1; assay: self-cleavage kobs at 160 uM GlcN6P; higher = faster cleavage; RNA array
Outline: as §1

glucosamine-6-phosphate [5] = variants of: B1; assay: self-cleavage kobs at 640 uM GlcN6P; higher = faster cleavage; RNA array
Outline: as §1

Variant	self-cleavage kobs at 40 uM GlcN6P (glucosamine-6-phosphate [1]) [s⁻¹]	self-cleavage kobs at 2500 uM GlcN6P (glucosamine-6-phosphate [2]) [s⁻¹]	self-cleavage kobs at 10000 uM GlcN6P (glucosamine-6-phosphate [3]) [s⁻¹]	self-cleavage kobs at 160 uM GlcN6P (glucosamine-6-phosphate [4]) [s⁻¹]	self-cleavage kobs at 640 uM GlcN6P (glucosamine-6-phosphate [5]) [s⁻¹]
G37U U47A C68G	< 1e-05	9e-05 ± 3.5e-05	< 1e-05		
C10G G41U	< 1e-05	< 1e-05	< 1e-05	< 1e-05	< 1e-05
A15G G44U C68G	< 1e-05				
A6U U55G G62C C70A	< 1e-05				
U45A U55A	0.00151 ± 0.00018	0.00931 ± 0.0037	0.09 ± 0.031		0.00993 ± 0.0023
A6U C11U C16A U30C C50G	0.000167 ± 2.9e-05	0.000224 ± 9e-05	0.000181 ± 2.9e-05		
A42G U55A	0.00136 ± 0.00015	0.0289 ± 0.0077	0.0423 ± 0.013	0.00202 ± 0.00052	0.0283 ± 0.0091
U56G C67U	0.000109 ± 1.2e-05	0.00142 ± 0.00022	0.00538 ± 0.00085	0.000258 ± 4.6e-05	0.00135 ± 0.00015
A15U G51C A64G	< 1e-05				
A6G G32A G37C U46G C58A C67G	0.000232 ± 6.3e-05		0.000132 ± 3.3e-05		0.000494 ± 0.00014
G35A G60A G66U C67U U69G	< 1e-05	< 1e-05			
C50G G60C C67U	6.17e-05 ± 1.7e-05	0.000124 ± 3.4e-05	4.29e-05 ± 1.2e-05		0.000438 ± 0.00012
C34U G38C	< 1e-05		< 1e-05	< 1e-05	< 1e-05
A42G G43C U45G A64U	< 1e-05		< 1e-05		
G9A C16U A42G C50G	0.000108 ± 4.9e-05				
G9A G13C	< 1e-05	< 1e-05		< 1e-05	< 1e-05
U30A G59U	< 1e-05				
G35A A36C	< 1e-05	< 1e-05		< 1e-05	< 1e-05
G9C C10A A52C C61U	< 1e-05		< 1e-05		
A12U G40A G44U	< 1e-05				< 1e-05
G13A G62U	< 1e-05	< 1e-05	< 1e-05	< 1e-05	< 1e-05
C11U G37A G66U	< 1e-05				

Variant	self-cleavage kobs at 40 uM GlcN6P (glucosamine-6-phosphate [1]) [s⁻¹]	self-cleavage kobs at 2500 uM GlcN6P (glucosamine-6-phosphate [2]) [s⁻¹]	self-cleavage kobs at 10000 uM GlcN6P (glucosamine-6-phosphate [3]) [s⁻¹]	self-cleavage kobs at 160 uM GlcN6P (glucosamine-6-phosphate [4]) [s⁻¹]	self-cleavage kobs at 640 uM GlcN6P (glucosamine-6-phosphate [5]) [s⁻¹]
G7U A52G C71U	< 1e-05				
G35U G40A	< 1e-05		< 1e-05	< 1e-05	< 1e-05
C8U G43U	< 1e-05	< 1e-05	< 1e-05	< 1e-05	
G38U G40C	< 1e-05	< 1e-05	< 1e-05		< 1e-05
C11G G37C U55A C68G	< 1e-05				0.000386 ± 0.00018
A6G A33G G35U C68G C70U	6.36e-05 ± 1.8e-05		0.000167 ± 3.1e-05		
A33G C50U	< 1e-05		< 1e-05		< 1e-05
C34G A42C C71U	< 1e-05	< 1e-05			
G44C G60A U69G	< 1e-05				
U55A G63U	< 1e-05		< 1e-05		< 1e-05
G40U A42G G51C A52G C70G	< 1e-05	< 1e-05	< 1e-05		
G13U G41A U49G U55G	< 1e-05	< 1e-05			
G9U G66A	< 1e-05		< 1e-05	< 1e-05	< 1e-05
C10A U31G A48G C67G	< 1e-05		< 1e-05		
A6C C10U A33G G41U U47G U55C	< 1e-05		< 1e-05		< 1e-05
G51C A64G C68A	< 1e-05		< 1e-05		
C34A U57G G63C C71U	< 1e-05	< 1e-05			< 1e-05
A6U G13U U47A	< 1e-05				
G37U G40U U46G U54C	< 1e-05	< 1e-05	< 1e-05	< 1e-05	< 1e-05
A36G C50G U56G C61A	0.000189 ± 6.2e-05		0.000459 ± 0.00011		
G37C G60U	< 1e-05		< 1e-05	< 1e-05	
G9A G59U A64U U65C	< 1e-05		< 1e-05		

Variant	self-cleavage kobs at 40 uM GlcN6P (glucosamine-6-phosphate [1]) [s⁻¹]	self-cleavage kobs at 2500 uM GlcN6P (glucosamine-6-phosphate [2]) [s⁻¹]	self-cleavage kobs at 10000 uM GlcN6P (glucosamine-6-phosphate [3]) [s⁻¹]	self-cleavage kobs at 160 uM GlcN6P (glucosamine-6-phosphate [4]) [s⁻¹]	self-cleavage kobs at 640 uM GlcN6P (glucosamine-6-phosphate [5]) [s⁻¹]
A15G U69C	0.00027 ± 7e-05	0.00345 ± 0.0012			0.00141 ± 0.00058
U69C C71A	5.28e-05 ± 2.1e-05	0.000478 ± 9.3e-05		0.000113 ± 1.9e-05	0.000587 ± 8.4e-05
A12G A48C	< 1e-05				
A14G G37A A42U U69A	0.000165 ± 2.5e-05		0.0157 ± 0.0032		0.00196 ± 0.00035
G7C A33G	< 1e-05		< 1e-05	< 1e-05	< 1e-05
C16G U49C	< 1e-05	< 1e-05	< 1e-05	< 1e-05	
C10A C11G G60U C61G	< 1e-05		< 1e-05		
A52C A53U G59A A64C	< 1e-05				< 1e-05
G51C G62A	< 1e-05	< 1e-05	< 1e-05		< 1e-05
A6G G41U U57G G59C C71U	< 1e-05	< 1e-05	< 1e-05	< 1e-05	< 1e-05
A12U G29U	0.000958 ± 0.00022		0.019 ± 0.0045		
G63U A64G	< 1e-05		< 1e-05	< 1e-05	< 1e-05
U46A G51U	< 1e-05	< 1e-05	< 1e-05	< 1e-05	< 1e-05
G35C A48G	< 1e-05	< 1e-05		< 1e-05	
U56A C61U	< 1e-05			< 1e-05	
G9U U45G	< 1e-05	< 1e-05	< 1e-05	< 1e-05	< 1e-05
C8G A33C C67G	< 1e-05				< 1e-05
G9A A42C C71A	< 1e-05	< 1e-05	< 1e-05	< 1e-05	< 1e-05
C11A A15C G43A	< 1e-05		< 1e-05		
U56G U69C	0.000126 ± 1.8e-05	0.00118 ± 0.00041	0.00475 ± 0.0011	0.000192 ± 6.9e-05	0.000627 ± 0.00011
A14U G37A A39C G59C	< 1e-05				
A6G G29U G35A C50G G51U G66U C71U	< 1e-05				

Variant	self-cleavage kobs at 40 uM GlcN6P (glucosamine-6-phosphate [1]) [s⁻¹]	self-cleavage kobs at 2500 uM GlcN6P (glucosamine-6-phosphate [2]) [s⁻¹]	self-cleavage kobs at 10000 uM GlcN6P (glucosamine-6-phosphate [3]) [s⁻¹]	self-cleavage kobs at 160 uM GlcN6P (glucosamine-6-phosphate [4]) [s⁻¹]	self-cleavage kobs at 640 uM GlcN6P (glucosamine-6-phosphate [5]) [s⁻¹]
G35A U65A	< 1e-05	< 1e-05	< 1e-05	< 1e-05	< 1e-05
U54C C67U	0.000255 ± 4.3e-05	0.00157 ± 0.00051	0.0047 ± 0.0014	0.000586 ± 0.00012	0.000928 ± 0.00027
C10A U45G	< 1e-05	< 1e-05	< 1e-05		< 1e-05
C8G U49A U54C G59U C67A	< 1e-05	< 1e-05	< 1e-05	< 1e-05	< 1e-05
A33G G60C C61U	< 1e-05		< 1e-05		< 1e-05
C11G G44C	< 1e-05	< 1e-05		< 1e-05	< 1e-05
A39G U56C C71U	7.63e-05 ± 2.3e-05				
G60A U65C	< 1e-05	< 1e-05	< 1e-05	< 1e-05	
G29C G41C G44A G60A	< 1e-05		< 1e-05		
C34G A39U	< 1e-05	< 1e-05	< 1e-05		< 1e-05
G7C G9U	< 1e-05		< 1e-05		< 1e-05
A39U U54A	0.000568 ± 6.6e-05				0.00339 ± 0.00076
A14U U55A	0.000252 ± 3.9e-05		0.00696 ± 0.0011		
A14C U54A	0.00014 ± 2.7e-05	0.0023 ± 0.0005	0.00985 ± 0.0024		0.00123 ± 0.00021
A39C C50U A64G	< 1e-05				
C8A A15U G38A G41C A53G	< 1e-05				
A14U G35U G44C U57C	< 1e-05	< 1e-05	< 1e-05		
G44A C70U	< 1e-05			< 1e-05	
C19A C50G	5.77e-05 ± 2.2e-05	6.17e-05 ± 2.2e-05	4.18e-05 ± 1.5e-05	0.000364 ± 9.5e-05	0.000594 ± 0.00013
C10U C68A C71U	< 1e-05				
C11A G35C	< 1e-05	< 1e-05		< 1e-05	< 1e-05
G40C G62U	< 1e-05	< 1e-05	< 1e-05	< 1e-05	< 1e-05
